Test results reported in the supplement of paper PMC7125110.
± gives the standard error. For part of these data: Fewer inactive variants are shown than the library holds.

B1: glmS ribozyme (parent)
chain: AUAAAAGCGCCAGAACUACAGAAAUGUAGUUGACGAGGAGGAGGUUUAUCGAAUUUUCGGCGGAUGCCUCCAAA

Legend:
Settings in all cases: with glucosamine-6-phosphate
glucosamine-6-phosphate [1] = variants of: B1; test: kcat; higher = faster cleavage; RNA array
Method in brief: (§1)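 Glucosamine-6-phosphate in HEPES/KCl/Mg(OAc)2 buffer, at 40 μM to 10 mM, was flowed over barcoded ribozyme variants transcribed in situ by E. coli RNA polymerase on sequenced MiSeq chips. Tracking was through a hybridised Cy3 probe at 37 °C. kobs, kcat and KM came from exponential decay fits and weighted Michaelis–Menten fits of normalised per-tile medians.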

glucosamine-6-phosphate [2] = variants of: B1; test: KM; higher = weaker cofactor use; RNA array
Method in brief: as §1

glucosamine-6-phosphate [3] = variants of: B1; test: self-cleavage kobs at 640 uM GlcN6P; higher = faster cleavage; RNA array
Method in brief: as §1

glucosamine-6-phosphate [4] = variants of: B1; test: self-cleavage kobs at 2500 uM GlcN6P; higher = faster cleavage; RNA array
Method in brief: as §1

glucosamine-6-phosphate [5] = variants of: B1; test: self-cleavage kobs at 10000 uM GlcN6P; higher = faster cleavage; RNA array
Method in brief: as §1

glucosamine-6-phosphate [6] = variants of: B1; test: self-cleavage kobs at 40 uM GlcN6P; higher = faster cleavage; RNA array
Method in brief: as §1

glucosamine-6-phosphate [7] = variants of: B1; test: self-cleavage kobs at 160 uM GlcN6P; higher = faster cleavage; RNA array
Method in brief: as §1

Variant | kcat (glucosamine-6-phosphate [1]) | KM (glucosamine-6-phosphate [2]) | self-cleavage kobs at 640 uM GlcN6P (glucosamine-6-phosphate [3]) | self-cleavage kobs at 2500 uM GlcN6P (glucosamine-6-phosphate [4]) | self-cleavage kobs at 10000 uM GlcN6P (glucosamine-6-phosphate [5]) | self-cleavage kobs at 40 uM GlcN6P (glucosamine-6-phosphate [6]) | self-cleavage kobs at 160 uM GlcN6P (glucosamine-6-phosphate [7])
U30C A39U | 0.000228 ± 2.1e-05 s⁻¹ | 1730 ± 380 µM | 6.71e-05 ± 1e-05 s⁻¹ | 0.000123 ± 1.7e-05 s⁻¹ | 0.000203 ± 2.2e-05 s⁻¹ | – | –
U30C G37C C70U | 1.63e-05 ± 2e-06 s⁻¹ | – | – | – | – | – | –
A15U U55G | 0.00423 ± 0.0019 s⁻¹ | – | 0.00134 ± 0.00029 s⁻¹ | 0.00204 ± 0.00063 s⁻¹ | 0.00356 ± 0.00054 s⁻¹ | 0.000109 ± 1.3e-05 s⁻¹ | 0.000152 ± 4.6e-05 s⁻¹
U30G U54A | 0.0115 ± 0.0045 s⁻¹ | – | 0.00201 ± 0.0004 s⁻¹ | 0.00795 ± 0.0017 s⁻¹ | 0.00853 ± 0.0011 s⁻¹ | 0.000247 ± 3.2e-05 s⁻¹ | 0.000384 ± 7.9e-05 s⁻¹
G29U C34G | < 1e-05 s⁻¹ | – | – | – | < 1e-05 s⁻¹ | < 1e-05 s⁻¹ | –
U30C U54C | 0.000253 ± 0.00011 s⁻¹ | – | 7.76e-05 ± 1.2e-05 s⁻¹ | 9.4e-05 ± 2.7e-05 s⁻¹ | 0.000271 ± 4.1e-05 s⁻¹ | – | 4.17e-05 ± 1.8e-05 s⁻¹
G29A U46C | 0.00025 ± 1.1e-05 s⁻¹ | 1880 ± 160 µM | 6.39e-05 ± 2e-05 s⁻¹ | 0.000139 ± 3.1e-05 s⁻¹ | 0.000216 ± 6.1e-05 s⁻¹ | – | –
G29U A53G C67G | 0.000147 ± 2.6e-05 s⁻¹ | – | 0.000108 ± 1.9e-05 s⁻¹ | 0.000139 ± 3.6e-05 s⁻¹ | 0.000205 ± 4.9e-05 s⁻¹ | 5.1e-05 ± 1.8e-05 s⁻¹ | 6.91e-05 ± 1.9e-05 s⁻¹
C16A G32U | 0.000568 ± 9.6e-05 s⁻¹ | 6390 ± 1500 µM | 5.63e-05 ± 1e-05 s⁻¹ | 0.000143 ± 2.8e-05 s⁻¹ | 0.000363 ± 6.7e-05 s⁻¹ | – | –
A15U G59A | 1.53e-05 ± 4.8e-06 s⁻¹ | – | – | – | – | < 1e-05 s⁻¹ | –
C16A C58A | 0.000107 ± 7.2e-06 s⁻¹ | 1510 ± 430 µM | – | 7.24e-05 ± 1.4e-05 s⁻¹ | 9.21e-05 ± 1.1e-05 s⁻¹ | – | –
U30A G32U | 0.000735 ± 0.00018 s⁻¹ | 4830 ± 1700 µM | 7.63e-05 ± 1.5e-05 s⁻¹ | 0.000275 ± 4.2e-05 s⁻¹ | 0.000475 ± 9.5e-05 s⁻¹ | – | 3.89e-05 ± 1.7e-05 s⁻¹
C16A C34U C71U | 1.28e-05 ± 4.6e-06 s⁻¹ | – | – | – | – | – | < 1e-05 s⁻¹
U30C A53G | 0.000411 ± 4.1e-05 s⁻¹ | 2120 ± 440 µM | 9.02e-05 ± 1.4e-05 s⁻¹ | 0.000252 ± 3.6e-05 s⁻¹ | 0.000328 ± 3.8e-05 s⁻¹ | – | –
A15U C71G | 0.000329 ± 9.4e-05 s⁻¹ | – | 9.25e-05 ± 9.6e-06 s⁻¹ | 0.000157 ± 2.3e-05 s⁻¹ | 0.000359 ± 4.3e-05 s⁻¹ | – | 4.2e-05 ± 8.4e-06 s⁻¹
C16U U57C | 0.000329 ± 0.00013 s⁻¹ | – | 5.65e-05 ± 1.1e-05 s⁻¹ | 8.73e-05 ± 1.7e-05 s⁻¹ | 0.00024 ± 3.4e-05 s⁻¹ | – | –
G29U C68G | 3.07e-05 ± 6.3e-06 s⁻¹ | – | – | 3.95e-05 ± 1.1e-05 s⁻¹ | – | – | –
